The values that follow come from IntAct's records for PubMed 19850925.

Sequences and labels used below:
B1: Complement factor H (Homo sapiens), P08603 (parent)
chain: MRLLAKIICLMLWAICVAEDCNELPPRRNTEILTGSWSDQTYPEGTQAIYKCRPGYRSLGNVIMVCRKGEWVALNPLRKCQKRPCGHPGDTPFGTFTLTGGNVFEYGVKAVYTCNEGYQLLGEINYRECDTDGWTNDIPICEVVKCLPVTAPENGKIVSSAMEPDREYHFGQAVRFVCNSGYKIEGDEEMHCSDDGFWSKEKPKCVEISCKSPDVINGSPISQKIIYKENERFQYKCNMGYEYSERGDAVCTESGWRPLPSCEEKSCDNPYIPNGDYSPLRIKHRTGDEITYQCRNGFYPATRGNTAKCTSTGWIPAPRCTLKPCDYPDIKHGGLYHENMRRPYFPVAVGKYYSYYCDEHFETPSGSYWDHIHCTQDGWSPAVPCLRKCYFPYLENGYNQNYGRKFVQGKSIDVACHPGYALPKAQTTVTCMENGWSPTPRCIRVKTCSKSSIDIENGFISESQYTYALKEKAKYQCKLGYVTADGETSGSITCGKDGWSAQPTCIKSCDIPVFMNARTKNDFTWFKLNDTLDYECHDGYESNTGSTTGSIVCGYNGWSDLPICYERECELPKIDVHLVPDRKKDQYKVGEVLKFSCKPGFTIVGPNSVQCYHFGLSPDLPICKEQVQSCGPPPELLNGNVKEKTKEEYGHSEVVEYYCNPRFLMKGPNKIQCVDGEWTTLPVCIVEESTCGDIPELEHGWAQLSSPPYYYGDSVEFNCSESFTMIGHRSITCIHGVWTQLPQCVAIDKLKKCKSSNLIILEEHLKNKKEFDHNSNIRYRCRGKEGWIHTVCINGRWDPEVNCSMAQIQLCPPPPQIPNSHNMTTTLNYRDGEKVSVLCQENYLIQEGEEITCKDGRWQSIPLCVEKIPCSQPPQIEHGTINSSRSSQESYAHGTKLSYTCEGGFRISEENETTCYMGKWSSPPQCEGLPCKSPPEISHGVVAHMSDSYQYGEEVTYKCFEGFGIDGPAIAKCLGEKWSHPPSCIKTDCLSLPSFENAIPMGEKKDVYKAGEQVTYTCATYYKMDGASNVTCINSRWTGRPTCRDTSCVNPPTVQNAYIVSRQMSKYPSGERVRYQCRSPYEMFGDEEVMCLNGNWTEPPQCKDSTGKCGPPPPIDNGDITSFPLSVYAPASSVEYQCQNLYQLEGNKRITCRNGQWSEPPKCLHPCVISREIMENYNIALRWTAKQKLYSRTGESVEFVCKRGYRLSSRSHTLRTTCWDGKLEYPTCAKR
partner: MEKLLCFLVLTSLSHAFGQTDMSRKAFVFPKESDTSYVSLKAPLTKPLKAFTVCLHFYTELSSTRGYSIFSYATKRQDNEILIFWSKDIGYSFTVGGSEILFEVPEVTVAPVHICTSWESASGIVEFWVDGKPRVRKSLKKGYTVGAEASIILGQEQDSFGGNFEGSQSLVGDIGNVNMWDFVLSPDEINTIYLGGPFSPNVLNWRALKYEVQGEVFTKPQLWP

In the test the parent is B1. Particulars: with crp_human CRP.
With Y402H, the “effect of a mutation on the interaction” value is “decreasing interaction strength”.
